{"source": "patent US20140178854A1", "key": {"[1]": {"target": "gp70 env protein of amphotropic MLV (4070A envelope), on purified viral particles (amphotropic murine leukemia virus (4070A envelope))", "sequence (P21995 whole entry)": "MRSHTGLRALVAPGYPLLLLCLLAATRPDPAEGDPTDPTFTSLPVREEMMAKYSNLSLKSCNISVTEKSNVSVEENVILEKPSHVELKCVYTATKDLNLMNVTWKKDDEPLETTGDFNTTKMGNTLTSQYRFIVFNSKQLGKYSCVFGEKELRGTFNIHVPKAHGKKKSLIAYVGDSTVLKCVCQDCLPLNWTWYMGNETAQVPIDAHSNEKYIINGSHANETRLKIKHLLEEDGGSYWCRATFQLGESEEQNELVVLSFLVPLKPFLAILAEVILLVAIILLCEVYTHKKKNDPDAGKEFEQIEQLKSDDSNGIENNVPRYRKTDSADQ", "assay": "ELISA on plate-bound MLV, dilution factor 10, Exp072-DTV Plate 1"}, "[2]": {"target": "gp70 env protein of amphotropic MLV (4070A envelope), on purified viral particles (amphotropic murine leukemia virus (4070A envelope))", "assay": "ELISA on plate-bound MLV, dilution factor 10, Exp073-DTV Plate 2"}, "[3]": {"target": "gp70 env protein of amphotropic MLV (4070A envelope), on purified viral particles (amphotropic murine leukemia virus (4070A envelope))", "assay": "ELISA on plate-bound MLV, dilution factor 10, Exp125-Ana Plate 2"}, "[4]": {"target": "gp70 env protein of amphotropic MLV (4070A envelope), on purified viral particles (amphotropic murine leukemia virus (4070A envelope))", "assay": "ELISA on plate-bound MLV, dilution factor 50, Exp121-Ana Plate 1"}, "[5]": {"target": "gp70 env protein of amphotropic MLV (4070A envelope), on purified viral particles (amphotropic murine leukemia virus (4070A envelope))", "assay": "ELISA on plate-bound MLV, dilution factor 250, Exp072-DTV Plate 1"}, "[6]": {"target": "gp70 env protein of amphotropic MLV (4070A envelope), on purified viral particles (amphotropic murine leukemia virus (4070A envelope))", "assay": "ELISA on plate-bound MLV, dilution factor 250, Exp072-DTV Plate 2"}, "[7]": {"target": "gp70 env protein of amphotropic MLV (4070A envelope), on purified viral particles (amphotropic murine leukemia virus (4070A envelope))", "assay": "ELISA on plate-bound MLV, dilution factor 250, Exp073-DTV Plate 1"}, "[8]": {"target": "gp70 env protein of amphotropic MLV (4070A envelope), on purified viral particles (amphotropic murine leukemia virus (4070A envelope))", "assay": "ELISA on plate-bound MLV, dilution factor 250, Exp074-DTV Plate 2"}, "[9]": {"target": "gp70 env protein of amphotropic MLV (4070A envelope), on purified viral particles (amphotropic murine leukemia virus (4070A envelope))", "assay": "ELISA on plate-bound MLV, dilution factor 250, Exp121-Ana Plate 2"}, "[10]": {"target": "gp70 env protein of amphotropic MLV (4070A envelope), on purified viral particles (amphotropic murine leukemia virus (4070A envelope))", "assay": "ELISA on plate-bound MLV, dilution factor 1250, Exp073-DTV Plate 1"}, "[11]": {"target": "gp70 env protein of amphotropic MLV (4070A envelope), on purified viral particles (amphotropic murine leukemia virus (4070A envelope))", "assay": "ELISA on plate-bound MLV, dilution factor 6250, Exp121-Ana Plate 2"}, "[12]": {"target": "gp70 env protein of amphotropic MLV (4070A envelope), on purified viral particles (amphotropic murine leukemia virus (4070A envelope))", "assay": "ELISA on plate-bound MLV, dilution factor 6250, Exp125-Ana Plate 2"}, "[13]": {"target": "gp70 env protein of amphotropic MLV (4070A envelope), on purified viral particles (amphotropic murine leukemia virus (4070A envelope))", "assay": "ELISA on plate-bound MLV, dilution factor 31250, Exp074-DTV Plate 1"}, "[14]": {"target": "gp70 env protein of amphotropic MLV (4070A envelope), on purified viral particles (amphotropic murine leukemia virus (4070A envelope))", "assay": "ELISA on plate-bound MLV, dilution factor 31250, Exp074-DTV Plate 2"}, "[15]": {"target": "gp70 env protein of amphotropic MLV (4070A envelope), on purified viral particles (amphotropic murine leukemia virus (4070A envelope))", "assay": "ELISA on plate-bound MLV, dilution factor 156250, Exp121-Ana Plate 2"}, "[16]": {"target": "gp70 env protein of amphotropic MLV (4070A envelope), on purified viral particles (amphotropic murine leukemia virus (4070A envelope))", "assay": "ELISA on plate-bound MLV, dilution factor 781250, Exp072-DTV Plate 1"}, "[17]": {"target": "gp70 env protein of amphotropic MLV (4070A envelope), on purified viral particles (amphotropic murine leukemia virus (4070A envelope))", "assay": "ELISA on plate-bound MLV, dilution factor 781250, Exp072-DTV Plate 2"}, "[18]": {"target": "gp70 env protein of amphotropic MLV (4070A envelope), on purified viral particles (amphotropic murine leukemia virus (4070A envelope))", "assay": "ELISA on plate-bound MLV, dilution factor 781250, Exp073-DTV Plate 2"}, "[19]": {"target": "gp70 env protein of amphotropic MLV (4070A envelope), on purified viral particles (amphotropic murine leukemia virus (4070A envelope))", "assay": "ELISA on plate-bound MLV, dilution factor 781250, Exp121-Ana Plate 2"}, "[20]": {"target": "gp70 env protein of amphotropic MLV (4070A envelope), on purified viral particles (amphotropic murine leukemia virus (4070A envelope))", "assay": "ELISA on plate-bound MLV, dilution factor 781250, Exp122-Ana Plate 1"}, "[21]": {"target": "gp70 env protein of amphotropic MLV (4070A envelope), on purified viral particles (amphotropic murine leukemia virus (4070A envelope))", "assay": "ELISA on plate-bound MLV, dilution factor 50, inter-assay mean of six experiments"}, "[22]": {"target": "gp70 env protein of amphotropic MLV (4070A envelope), on purified viral particles (amphotropic murine leukemia virus (4070A envelope))", "assay": "ELISA on plate-bound MLV, dilution factor 250, inter-assay mean of six experiments"}, "[23]": {"target": "gp70 env protein of amphotropic MLV (4070A envelope), on purified viral particles (amphotropic murine leukemia virus (4070A envelope))", "assay": "ELISA on plate-bound MLV, dilution factor 6250, inter-assay mean of six experiments"}, "[24]": {"target": "gp70 env protein of amphotropic MLV (4070A envelope), on purified viral particles (amphotropic murine leukemia virus (4070A envelope))", "assay": "ELISA on plate-bound MLV, dilution factor 31250, inter-assay mean of six experiments"}, "[25]": {"target": "gp70 env protein of amphotropic MLV (4070A envelope), on purified viral particles (amphotropic murine leukemia virus (4070A envelope))", "assay": "ELISA on plate-bound MLV, dilution factor 156250, inter-assay mean of six experiments"}, "[26]": {"target": "gp70 env protein of amphotropic MLV (4070A envelope), on purified viral particles (amphotropic murine leukemia virus (4070A envelope))", "assay": "human anti-MLV ELISA on plate-bound MLV, anti-rat Ig HRP alone or conjugate cocktail"}}}
{"substance": "83A25 monoclonal antibody (rat IgG2a, anti-gp70)", "values": [{"measurement": "Mean OD", "setting": "[1]", "value": 1.98, "unit": "OD"}, {"measurement": "Mean OD", "setting": "[2]", "value": 2.48, "unit": "OD"}, {"measurement": "Mean OD", "setting": "[3]", "value": 2.27, "unit": "OD"}, {"measurement": "Mean OD", "setting": "[4]", "value": 2.43, "unit": "OD"}, {"measurement": "Mean OD", "setting": "[5]", "value": 1.7, "unit": "OD"}, {"measurement": "Mean OD", "setting": "[6]", "value": 1.56, "unit": "OD"}, {"measurement": "Mean OD", "setting": "[7]", "value": 2.05, "unit": "OD"}, {"measurement": "Mean OD", "setting": "[8]", "value": 1.89, "unit": "OD"}, {"measurement": "Mean OD", "setting": "[9]", "value": 2.25, "unit": "OD"}, {"measurement": "Mean OD", "setting": "[10]", "value": 1.78, "unit": "OD"}, {"measurement": "Mean OD", "setting": "[11]", "value": 0.758, "unit": "OD"}, {"measurement": "Mean OD", "setting": "[12]", "value": 0.635, "unit": "OD"}, {"measurement": "Mean OD", "setting": "[13]", "value": 0.253, "unit": "OD"}, {"measurement": "Mean OD", "setting": "[14]", "value": 0.25, "unit": "OD"}, {"measurement": "Mean OD", "setting": "[15]", "value": 0.159, "unit": "OD"}, {"measurement": "Mean OD", "setting": "[16]", "value": 0.087, "unit": "OD"}, {"measurement": "Mean OD", "setting": "[17]", "value": 0.104, "unit": "OD"}, {"measurement": "Mean OD", "setting": "[18]", "value": 0.11, "unit": "OD"}, {"measurement": "Mean OD", "setting": "[19]", "value": 0.131, "unit": "OD"}, {"measurement": "Mean OD", "setting": "[20]", "value": 0.162, "unit": "OD"}, {"measurement": "Mean OD (inter-assay mean)", "setting": "[21]", "value": 2.09, "unit": "OD"}, {"measurement": "Mean OD (inter-assay mean)", "setting": "[22]", "value": 1.93, "unit": "OD"}, {"measurement": "Mean OD (inter-assay mean)", "setting": "[23]", "value": 0.693, "unit": "OD"}, {"measurement": "Mean OD (inter-assay mean)", "setting": "[24]", "value": 0.259, "unit": "OD"}, {"measurement": "Mean OD (inter-assay mean)", "setting": "[25]", "value": 0.144, "unit": "OD"}, {"measurement": "titer (reciprocal dilution (1:x))", "setting": "[26]", "value": 312000}]}
